Here are results for two molecules from patent publication US9403908B2, “Method for altering hematopoietic progenitor cell adhesion, differentiation, and migration” (The Regents of the University of California, priority 2003, dated 2016).

The subject of assay [1] is bFGF or VEGF induced angiogenesis in Matrigel. Nature of the assay: Murine Matrigel angiogenesis assay (bFGF or VEGF). The assay is classed as in vivo, mouse. Particulars: peptide antagonist; 50 μM in bFGF matrigel, nude mice (FIG. 19G). How it is done:
(B, C) Adhesion of endothelial cells to plastic plates coated with 5 μg/ml CS-1 fibronectin, in the presence of medium, anti-α4β1 (HP1/2) or control antibodies (P1F6). (D) Cryosections from bFGF stimulated, saline or antibody-treated CAMs were immunostained to detect blood vessel expression of von Willebrand Factor. (E) Angiogenesis was initiated in FVB/N mice by corneal transplantation of polymerized pellets containing 400 ng/ml of VEGF. Animals (n=5) were treated on day 0 and day 3 with anti-α4β1 (PS/2) or control IgG (cIgG). Fifteen minutes prior to sacrifice on day 5, mice were injected intravenously with endothelial specific lectin, Bandeira simplifolia-FITC and tissues were cryopreserved. Angiogenic response to VEGF was quantified as the percent green fluorescent area visible under high power magnification (100×). […] Matrigel plugs were homogenized in RIPA buffer and fluorescence intensity determined.
[…] Microvessel density was quantified in 10 randomly selected 200× microscopic fields for each plug in each treatment group (n=8). […] Angiogenic response to VEGF was quantified as the percent green fluorescent area visible at 100× magnification. […] Tumor dimensions were determined every other day and tumor mass was determined after four weeks of treatment. […] Statistical significance was determined using Student's t-test.

Assay [2] concerns human CD34+ stem cells. Nature of the assay: CD34+ stem cell adhesion to HUVEC monolayers. The assay is classed as cell-based. Particulars: 60 minutes, 25 μg/ml HP2/1 or P1F6 (FIG. 34d-e). How it is done: Adhesion assays were performed on plastic 48 well plates coated with 5 μg/ml of recombinant H120 CS-1 fibronectin (from Martin J. Humphries, University of Birmingham, UK) as described (Kim et al. (2000) Am. J. Pathol. 156, 1345-1362). Stem cells were incubated on coated plates for 30 minutes in the presence of 25 μg/ml anti-α4β1_(HP2/1) or anti-αvβ5 (P1F6, from Dr. David Cheresh, the Scripps Research Institute). CMTMR labeled stem cells were incubated in HEPES buffered serum free culture medium in the presence of 25 μg/ml HP2/1 or P1F6 on HUVEC monolayers for 60 minutes at 37° C. Unbound cells were removed by washing gently with PBS. Cells were fixed in 3.7% parafomaldeyde. Representative fields were photographed at 200× and the number of cells adhering per field was quantified in five representative fields per treatment condition.

Assay [3] has as its system endothelial progenitor cells (EPCs). Nature of the assay: Adhesion of DiI-labeled EPCs to endothelial (HUVEC) monolayers. It is filed as cell-based, human. Particulars: DiI-labeled EPCs on proliferating HUVEC monolayers; FIG. 17D. How it is done: (A-B) Adhesion of purified EPCs on plastic plates coated with (A) 5 μg/ml CS-1 fibronectin or (B) recombinant soluble VCAM in the presence of medium, anti-α4β1 (HP1/2) or control antibodies (P1F6). (C) Adhesion of DiI-labeled purified EPCs to HUVEC monolayers VCAM in the presence of medium, anti-α4β1 (HP1/2) or control antibodies (P1F6). Cells were quantified by counting adherent red fluorescent cells per 200× microscopic field. (D) Adhesion of DiI-labeled purified EPCs to HUVEC monolayers in the presence of medium, rsVCAM or control protein. Statistical significance was determined using Student's t-test.
To determine whether EPCs can attach to proliferating vascular endothelium that has been stimulated by angiogenic growth factors, we plated EPCs labeled with DiI-acetylated LDL onto proliferating endothelial monolayers. EPCs bound strongly to endothelium in a α4β1 dependent manner (FIG. 17C) and that rsVCAM blocked EPC attachment to endothelial monolayers (FIG. 17D). […] Thus, α4β1 mediates the attachment of EPCs to VCAM on vascular endothelium. […]

Turning to EILDV, the “neovascularization in Matrigel model” value in assay [1] is given as “blocked”.

B1: rsVCAM: recombinant soluble VCAM, a competitive inhibitor of integrin α4β1 function (protein)
chain: FKIETTPESRYLAQIGDSVSLTCSTTGCESPFFSWRTQIDSPLNGKVTNEGTTSTLTMNPVSFGNEHSYLCTATCESRKLEKGIQVEIYSFPKDPEIHLSGPLEAGKPITVKCSVADVYPFDRLEIDLLKGDHLMKSQEFLEDADRKSLETKSLEVTFTPVIEDIGKVLVCRAKLHIDEMDSVPTVRQAVKELQVYISPKNTVISVNPSTKLQEGGSVTMTCSSEGLPAPEIFWSKKLDNGNLQHLSGNATLTLIAMRMEDSGIYVCEGVNLIGKNRKEVELIVQEKPFTVEISPGPRIAAQIGDSVMLTCSVMGCESPSFSWRTQIDSPLSGKVRSEGTNSTLTLSPVSFENEHSYLCTVTCGHKKLEKGIQVELYSFPRDPEIEMSGGLVNGSSVTVSCKVPSVYPLDRLEIELLKGETILENIEFLEDTDMKSLENKSLEMTFIPTIEDTGKALVCQAKLHIDDMEFEPKQRQSTQTLYVNVAPRDTTVLVSPSSILEEGSSVNMTCLSQGFPAPKILWSRQLPNGELQPLSENATLTLISTKMEDSGVYLCEGINQAGRSRKEVELIIQVTPKDIKLTAFPSESVKEGDTVIISCTCGNVPETWIILKKKAETGDTVLKSIDGAYTIRKAQLKDAGVYECESKNKVGSQLRSLTLDVQGRENNKDYFSPE
With B1, in assay [2], the “stem cell adhesion to endothelial cell (EC) monolayers” value is listed as “blocked”. Besides, the “EPC attachment to endothelial monolayers” value in assay [3] is given as “blocked”.
